According to article PMC9301129:

What was measured:
Conditions in all cases: glycan lost; control: UNC93B1(WT)
[1] = blot of TLR9 in isolated phagosomes
[2] = TLR9 co-IP after CpG DNA, anti-MyD88 blot
[3] = streptavidin pull-down, anti-myc blot, KO iBMDM
[4] = cycloheximide chase, anti-GFP blot, UNC93B1 KO iBMDM
[5] = confocal microscopy, colocalisation with CD63, KO BMDC
[6] = confocal microscopy, TLR9-GFP with CD63-cherry, KO BMDC
[7] = cycloheximide chase, anti-myc blot, full-length and cleaved TLR9

B1: UNC93B1: N272Q (protein)
parent chain: MEVEPPLYPVAGAAGPQGDEDRHGVPDGPEAPLDELVGAYPNYNEEEEERRYYRRKRLGVVKNVLAASTGVTLTYGVYLGLLQMQLILHYDETYREVKYGNMGLPDIDSKMLMGINVTPIAALLYTPVLIRFFGTKWMMFLAVGIYALFVSTNYWERYYTLVPSAVALGMAIVPLWASMGNYITRMSQKYYEYSHYKEQDEQGPQQRPPRGSHAPYLLVFQAIFYSFFHLSFACAQLPMIYFLNNYLYDLNHTLINVQSCGTKSQGILNGFNKTVLRTLPRSKNLIVVESVLMAVAFLAMLMVLGLCGAAYRPTEEIDLRSVGWGNIFQLPFKHVRDFRLRHLVPFFIYSGFEVLFACTGFALGYGVCSMGLERLAYLLIAYSLGASASSVLGLLGLWLPRSVPLVAGAGLHLLLTLSLFFWAPAPRVLQHSWIFYFVAALWGVGSALNKTGLSTLLGILYEDKERQDFIFTIYHWWQAVAIFVVYLGSSLPMKAKLAVLLVTLVAAAASYLWMEQKLQQGLVPRQPRIPKPQHKVRGYRYLEEDNSDESDMEGEQGQGDCAEDEAPQAGPLGAEPAGPCRKPCPYEQALGGDGPEEQ
- other: TLR9 trafficking to phagosomes [1]: no change
- other: MyD88 recruitment to TLR9 [2]: decreases
- other: CpG DNA binding by client TLR9 [3]: no change
- degradation_or_half_life [4]: no change
- localisation_or_trafficking [5]: no change
- other: endosomal localisation of client TLR9 [6]: no change
- other: stability and processing of client TLR9 [7]: no change

B2: UNC93B1: N251Q (protein)
parent chain: MEVEPPLYPVAGAAGPQGDEDRHGVPDGPEAPLDELVGAYPNYNEEEEERRYYRRKRLGVVKNVLAASTGVTLTYGVYLGLLQMQLILHYDETYREVKYGNMGLPDIDSKMLMGINVTPIAALLYTPVLIRFFGTKWMMFLAVGIYALFVSTNYWERYYTLVPSAVALGMAIVPLWASMGNYITRMSQKYYEYSHYKEQDEQGPQQRPPRGSHAPYLLVFQAIFYSFFHLSFACAQLPMIYFLNNYLYDLNHTLINVQSCGTKSQGILNGFNKTVLRTLPRSKNLIVVESVLMAVAFLAMLMVLGLCGAAYRPTEEIDLRSVGWGNIFQLPFKHVRDFRLRHLVPFFIYSGFEVLFACTGFALGYGVCSMGLERLAYLLIAYSLGASASSVLGLLGLWLPRSVPLVAGAGLHLLLTLSLFFWAPAPRVLQHSWIFYFVAALWGVGSALNKTGLSTLLGILYEDKERQDFIFTIYHWWQAVAIFVVYLGSSLPMKAKLAVLLVTLVAAAASYLWMEQKLQQGLVPRQPRIPKPQHKVRGYRYLEEDNSDESDMEGEQGQGDCAEDEAPQAGPLGAEPAGPCRKPCPYEQALGGDGPEEQ
- other: MyD88 recruitment to TLR9 [2]: no change
- other: CpG DNA binding by client TLR9 [3]: no change
- degradation_or_half_life [4]: no change
- localisation_or_trafficking [5]: no change
- other: endosomal localisation of client TLR9 [6]: no change
- other: stability and processing of client TLR9 [7]: no change

B3: UNC93B1: N251Q/N272Q (protein)
parent chain: MEVEPPLYPVAGAAGPQGDEDRHGVPDGPEAPLDELVGAYPNYNEEEEERRYYRRKRLGVVKNVLAASTGVTLTYGVYLGLLQMQLILHYDETYREVKYGNMGLPDIDSKMLMGINVTPIAALLYTPVLIRFFGTKWMMFLAVGIYALFVSTNYWERYYTLVPSAVALGMAIVPLWASMGNYITRMSQKYYEYSHYKEQDEQGPQQRPPRGSHAPYLLVFQAIFYSFFHLSFACAQLPMIYFLNNYLYDLNHTLINVQSCGTKSQGILNGFNKTVLRTLPRSKNLIVVESVLMAVAFLAMLMVLGLCGAAYRPTEEIDLRSVGWGNIFQLPFKHVRDFRLRHLVPFFIYSGFEVLFACTGFALGYGVCSMGLERLAYLLIAYSLGASASSVLGLLGLWLPRSVPLVAGAGLHLLLTLSLFFWAPAPRVLQHSWIFYFVAALWGVGSALNKTGLSTLLGILYEDKERQDFIFTIYHWWQAVAIFVVYLGSSLPMKAKLAVLLVTLVAAAASYLWMEQKLQQGLVPRQPRIPKPQHKVRGYRYLEEDNSDESDMEGEQGQGDCAEDEAPQAGPLGAEPAGPCRKPCPYEQALGGDGPEEQ
- other: MyD88 recruitment to TLR9 [2]: decreases
